According to article PMC5214978 (Structure (London, England : 1993), 2016):
Values joined by “and” are separate entries in the source; they are usually repeats but may differ in a detail not shown here. Identical values can stand only once.

Target: the molecule itself
Assay: cross-linking

B1: Anion exchanger 1 (AE1) (natural protein, human (endogenous in erythrocytes), UniProt P02730 1-911, looked up)
chain: MEELQDDYEDMMEENLEQEEYEDPDIPESQMEEPAAHDTEATATDYHTTSHPGTHKVYVELQELVMDEKNQELRWMEAARWVQLEENLGENGAWGRPHLSHLTFWSLLELRRVFTKGTVLLDLQETSLAGVANQLLDRFIFEDQIRPQDREELLRALLLKHSHAGELEALGGVKPAVLTRSGDPSQPLLPQHSSLETQLFCEQGDGGTEGHSPSGILEKIPPDSEATLVLVGRADFLEQPVLGFVRLQEAAELEAVELPVPIRFLFVLLGPEAPHIDYTQLGRAAATLMSERVFRIDAYMAQSRGELLHSLEGFLDCSLVLPPTDAPSEQALLSLVPVQRELLRRRYQSSPAKPDSSFYKGLDLNGGPDDPLQQTGQLFGGLVRDIRRRYPYYLSDITDAFSPQVLAAVIFIYFAALSPAITFGGLLGEKTRNQMGVSELLISTAVQGILFALLGAQPLLVVGFSGPLLVFEEAFFSFCETNGLEYIVGRVWIGFWLILLVVLVVAFEGSFLVRFISRYTQEIFSFLISLIFIYETFSKLIKIFQDHPLQKTYNYNVLMVPKPQGPLPNTALLSLVLMAGTFFFAMMLRKFKNSSYFPGKLRRVIGDFGVPISILIMVLVDFFIQDTYTQKLSVPDGFKVSNSSARGWVIHPLGLRSEFPIWMMFASALPALLVFILIFLESQITTLIVSKPERKMVKGSGFHLDLLLVVGMGGVAALFGMPWLSATTVRSVTHANALTVMGKASTPGAAAQIQEVKEQRISGLLVAVLVGLSILMEPILSRIPLAVLFGIFLYMGVTSLSGIQLFDRILLLFKPPKYHPDVPYVKRVKTWRMHLFTGIQIICLAVLWVVKSTPASLALPFVLILTVPLRRVLLPLIFRNVELQCLDADDAKATFDEEEGRDEYDEVAMPV
modifications: extensive and variable glycosylation (sites not given)
  stoichiometry N: 2 and 4
